Laboratory results as given in patent US20250221923A1, “BOOSTING OSMOTIC BLOOD-ORGAN BARRIER OPENING FOR IMPROVED DELIVERY OF THERAPEUTICS TO ORGANS” (priority 2024, published 2025).

Key:
[1] = test system: brain hemispheres; conditions: mouse, in vivo
Description: Then, monoclonal antibody (mAb) bevacizumab was conjugated to deferoxamine (DFO) and the conjugate was radiolabeled with zirconium-89 (^89Zr). OBBBO was performed using 25% mannitol or 4% NaCl in 25% mannitol, followed by intraarterial (IA) injection of the radiolabeled mAb and positron-emission tomography (PET) imaging to assess the distribution of the mAb. The percentages of injected dose per cubic centimeter of tissue (% ID/g) and standardized uptake values (SUV) were calculated for selected organs and regions.
Approximately 7.5 MBq (˜202 μCi) of ^89Zr-BVDFO reconstituted in 0.2 mL of saline was infused intraarterially at a speed of 0.15 mL/min and each animal was transferred to the PET/CT scanner. […] Regions of interest (ROIs), including right and left brain hemispheres, heart, lungs, and liver, were demarcated in the axial plane, and standardized uptake values (SUV) were calculated using the Fiji ImageJ PET/CT plugin.
Linear mixed modeling with restricted maximum likelihood (REML) method was performed using ‘Imer’ package, with % ID/g or SUVmean or SUVmax as a dependent variable, organs and BBBO type as fixed effects and mouse ID as a random effect. Estimated marginal means were calculated using ‘emmeans’ package for organ and BBBO interactions, and p-values for pairwise comparisons were extracted.

[2] = test system: head and neck region; set-up: species or system mice; conditions: mouse, in vivo
Description: Radiolabeled bevacizumab (Zr 89-bevacizumab) was administered via both IA and IV routes. […] Ex vivo measurements of drug biodistribution across various organs further corroborated these findings, quantifying radioactivity in specific tissues such as the skin, salivary glands, tongue, and jaw muscle (FIG. 7e). The method comprised pretreatment with composition comprising a hyperosmotic agent, stopping the pretreatment administration, and then administrating the radiolabeled bevacizumab. Without being bound by theory, it is believed that to enhance drug delivery, the pretreatment with the hyperosmotic agent would extract water from the tissue (local dehydration), followed by rapid rehydration upon cessation of the hyperosmotic infusion. This process was expected to improve the transition of the intra-arterially administered drug from the vascular compartment to the parenchymal tissues, thereby increasing drug accumulation in the targeted areas.

[3] = test system: brain hemispheres; set-up: species or system mice; conditions: mouse
Description: A catheter was placed into the right internal carotid artery (ICA) in 14 male C57BL6 mice for intra-arterial (IA) injections. […] To confirm OBBBO, Gadolinium-enhanced T1 MRI was conducted, and safety was confirmed through subsequent serial MRI over 1-2 weeks.

[4] = test system: brain; conditions: mouse, in vivo
Excerpt: In experiment 2, IA injections of antibodies suspended in 0.9% NaCl were comparted to IA injections of antibodies suspended in serum. PET imaging and post-mortem antibody biodistribution were used as outcome measures.

[5] = test system: brain hemispheres and organs; test: Ex vivo biodistribution of ^89Zr-BVDFO after OBBBO (Example 1); set-up: species or system mice; conditions: mouse
Description: On completion of PET/CT after infusion of ^89Zr-BVDFO, the mice were euthanized and left and right brain hemispheres, heart, lungs, liver, spleen, kidneys, and blood were harvested, weighed using Mettler Toledo […] Balance and radioactivity of each was measured using CRC®[…] Dose Calibrator and Well Counter, Mirion Technologies. To calculate the percentage injected dose per […] of tissue (% ID/g), first, the radioactivity present in the syringe after injection was measured and subtracted from initial measurement before injection to calculate the total injected dose. Then, the percentage of each organ's radioactivity measurement relative to the total injected dose was calculated and divided by the weight of the organ. The biodistribution data shown are mean % ID/g+SE.

^89Zr-BVDFO: monoclonal antibody bevacizumab (Avastin) conjugated to deferoxamine (DFO) and radiolabeled with zirconium-89
accumulation of radioactivity in the ipsilateral hemisphere [1]: substantial accumulation | antibody uptake in the head and neck region, IA compared to IV [2]: significantly higher | ex vivo biodistribution, accumulation in the ipsilateral hemisphere [3]: confirmed by ex vivo biodistribution | standardized uptake values (SUV), accumulation in the ipsilateral hemisphere ([3]; in vivo): substantial accumulation | CNS penetration, antibodies suspended in 0.9% NaCl vs suspended in serum [4]: much higher | antibody penetration to the brain, IA vs IV ([4]; iv): much higher | uptake in the blood, lungs, spleen, liver, and kidneys [5]: high uptake
